Article PMC7225340

target: human IL21R-Fc (bivalent) (human) (UniProt Q9HBE5); test: BLI; ForteBio Octet RED384/HTX, 27 C; 10 mM Tris pH 7.5, 150 mM NaCl, 1 mM CaCl2, BSA, 0.13% Triton X-100; receptor reagent bivalent IL21R-Fc (how it was held is not told); samples in 3-fold dilutions, top 10 nM for wild-type IL21 fusions, 300 nM for mutein fusions; association 20 min, dissociation 1.5 h; global 1:1 fit
UniProt Q9HBE5, sequence (Q9HBE5 20-232): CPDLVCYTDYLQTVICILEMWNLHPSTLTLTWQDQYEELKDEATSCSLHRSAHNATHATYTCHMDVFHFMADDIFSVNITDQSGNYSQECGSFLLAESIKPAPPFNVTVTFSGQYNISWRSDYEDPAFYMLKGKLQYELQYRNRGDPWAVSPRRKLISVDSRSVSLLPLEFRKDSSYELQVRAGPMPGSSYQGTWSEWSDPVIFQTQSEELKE

**Q.** For anti-PD-1 mAb x IL-21 Q12E, homodimer, which Kd is on record?
**A.** Its Kd is 0.031 nM.

**Q.** With anti-PD-1 mAb x IL-21 K73H, homodimer as the substance, how does the Kd read?
**A.** Its Kd is 0.19 nM.

**Q.** How did the Kd turn out when anti-PD-1 mAb x IL-21 R76K, homodimer was run?
**A.** The Kd was 0.2 nM.

**Q.** Which Kd does the source give for anti-PD-1 mAb x IL-21 P79D, homodimer here?
**A.** The Kd was 0.32 nM.

**Q.** Which Kd does the source give for anti-PD-1 mAb x IL-21 R65P, homodimer here?
**A.** The Kd was 0.9 nM.

**Q.** How did the Kd turn out when anti-PD-1 mAb x IL-21 Q12V, homodimer was run?
**A.** The Kd was less than 2.2 nM.

**Q.** Which Kd does the source give for anti-PD-1 mAb x IL-21 K73Q, homodimer here?
**A.** Its Kd is 0.069 nM.

**Q.** How did the Kd turn out when anti-PD-1 mAb x IL-21 R76N, homodimer was run?
**A.** The Kd was 15 nM.

**Q.** For anti-PD-1 mAb x IL-21 K73P, homodimer, which Kd is on record?
**A.** Its Kd is 2 nM.

**Q.** Which Kd does the source give for anti-PD-1 mAb x IL-21 Q12S, homodimer here?
**A.** Its Kd is 0.32 nM.

**Q.** Which Kd does the source give for anti-PD-1 mAb x IL-21 K73G, homodimer here?
**A.** The Kd was 0.25 nM.

**Q.** With anti-PD-1 mAb x IL-21 R76G, homodimer as the substance, how does the Kd read?
**A.** Its Kd is 2 nM.

**Q.** anti-PD-1 mAb x IL-21 K73D, homodimer was tested. Which Kd did it give?
**A.** The Kd was 0.44 nM.

**Q.** For anti-PD-1 mAb x IL-21 Q12A, homodimer, which Kd is on record?
**A.** The Kd was 0.23 nM.

**Q.** Which Kd does the source give for anti-PD-1 mAb x IL-21 K73S, homodimer here?
**A.** The Kd was 0.17 nM.

**Q.** Which Kd does the source give for anti-PD-1 mAb x IL-21 R76M, homodimer here?
**A.** The Kd was 0.6 nM.

**Q.** Which Kd does the source give for anti-PD-1 mAb x IL-21 Q19D, homodimer here?
**A.** The Kd was 0.17 nM.

**Q.** anti-PD-1 mAb x IL-21 Q12D, homodimer was tested. Which Kd did it give?
**A.** Its Kd is 0.42 nM.

**Q.** anti-PD-1 mAb x IL-21 R76H, homodimer was tested. Which Kd did it give?
**A.** Its Kd is 2 nM.

**Q.** Which Kd does the source give for anti-PD-1 mAb x IL-21 K75G, homodimer here?
**A.** Its Kd is 0.16 nM.

**Q.** How did the Kd turn out when “anti-PD-1 mAb x IL-21 K77G, homodimer (from UniProt Q9HBE4 25-162)” was run?
**A.** Its Kd is 0.66 nM.

**Q.** anti-PD-1 mAb x IL-21 R76P, homodimer was tested. Which Kd did it give?
**A.** The Kd was 0.4 nM.

**Q.** For anti-PD-1 mAb x IL-21 R76D, homodimer, which Kd is on record?
**A.** The Kd was 12 nM.

**Q.** How did the Kd turn out when anti-PD-1 mAb x IL-21 I8S, homodimer was run?
**A.** The Kd was 4 nM.

**Q.** For anti-PD-1 mAb x IL-21 K72G, homodimer, which Kd is on record?
**A.** The Kd was 0.25 nM.

**Q.** How did the Kd turn out when anti-PD-1 mAb x IL-21 K75P, homodimer was run?
**A.** Its Kd is 1 nM.

**Q.** How did the Kd turn out when anti-PD-1 mAb x IL-21 K72P, homodimer was run?
**A.** The Kd was 9 nM.

**Q.** How did the Kd turn out when anti-PD-1 mAb x IL-21 K73A, homodimer was run?
**A.** Its Kd is 0.053 nM.

**Q.** How did the Kd turn out when anti-PD-1 mAb x IL-21 R65G, homodimer was run?
**A.** The Kd was 0.13 nM.

**Q.** How did the Kd turn out when anti-PD-1 mAb x IL-21 R5Q, homodimer was run?
**A.** The Kd was 2.1 nM.

**Q.** With anti-PD-1 mAb x IL-21 K73I, homodimer as the substance, how does the Kd read?
**A.** The Kd was 0.17 nM.

**Q.** Which Kd does the source give for anti-PD-1 mAb x IL-21 R5A, homodimer here?
**A.** Its Kd is 0.24 nM.

**Q.** For anti-PD-1 mAb x IL-21 Q12N, homodimer, which Kd is on record?
**A.** Its Kd is 0.38 nM.

**Q.** For anti-PD-1 mAb x IL-21 K72D, homodimer, which Kd is on record?
**A.** Its Kd is 0.24 nM.

**Q.** Which Kd does the source give for anti-PD-1 mAb x IL-21 K73E, homodimer here?
**A.** The Kd was 0.073 nM.

**Q.** How did the Kd turn out when anti-PD-1 mAb x IL-21 L13D, homodimer was run?
**A.** Its Kd is 11 nM.

**Q.** For anti-PD-1 mAb x IL-21 R76L, homodimer, which Kd is on record?
**A.** Its Kd is 0.2 nM.

**Q.** anti-PD-1 mAb x IL-21 Q12T, homodimer was tested. Which Kd did it give?
**A.** The Kd was less than 0.26 nM.

target: cyno IL21R(1-232)-FLAG-His (cynomolgus monkey); test: BLI; ForteBio Octet RED384/HTX, 27 C; 10 mM Tris pH 7.5, 150 mM NaCl, 1 mM CaCl2, BSA, 0.13% Triton X-100; biotinylated human or cyno IL21R(1-232)-FLAG-His captured on streptavidin SAX tips to 2.0 nm; samples in 3-fold dilutions, top 300 nM for mutein fusions; association 20 min, dissociation 1.5 h; global 1:1 fit

**Q.** How did the Kd turn out when “recombinant human IL-21 (free wild-type cytokine) (from UniProt Q9HBE4 25-162) (ligand)” was run?
**A.** The Kd was 0.044 nM.
